Measured values: article PMC3696906

What was measured:
murine CD28-Fc = biological target: T1, murine CD28-Fc (mouse, UniProt P31041 20-150); experiment: filter binding
T1 sequence: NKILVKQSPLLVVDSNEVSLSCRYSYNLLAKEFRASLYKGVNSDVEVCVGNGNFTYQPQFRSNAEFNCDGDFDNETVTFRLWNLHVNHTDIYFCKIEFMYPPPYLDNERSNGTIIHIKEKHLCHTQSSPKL

human CD28-Fc = human CD28-Fc (human, UniProt P10747 19-152); experiment: filter binding?

Chain of human CD28-Fc (P10747 19-152): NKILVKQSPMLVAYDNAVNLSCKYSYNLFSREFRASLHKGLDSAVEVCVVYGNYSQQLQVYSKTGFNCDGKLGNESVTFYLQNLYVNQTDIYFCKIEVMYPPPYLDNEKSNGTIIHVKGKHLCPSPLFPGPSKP

B1: CD28Apt7 (monomer) (structured_RNA)
RNA: GGGAGAGAGGAAGAGGGAUGGGGAUUAGACCAUAGGCUCCCAACCCCCAUAACCCAGAGGUCGAUAGUACUGGAUCCCCCC
modifications: 2'-fluoropyrimidine (2'-F C and U)
Kd (murine CD28-Fc): 60 nM | binding result (human CD28-Fc): no binding
